Experiments:
[1] = molecular target: Enoyl-CoA carboxylase/reductase (ECR) from Burkholderia ambifaria (Burkholderia ambifaria); assay: SEC; S200 column; each protein alone (1 mL) and a mixture of equal volumes (500 uL each) of the two proteins; peaks compared
[2] = molecular target: Enoyl-CoA carboxylase/reductase (ECR) from Mesorhizobium metallidurans (Mesorhizobium metallidurans); assay: crystal structure; apo ECR, space group C 1 2 1, 100 K, 1.40 Å, molecular replacement with PDB 6NA3
[3] = molecular target: Enoyl-CoA carboxylase/reductase (ECR) from Mesorhizobium metallidurans (Mesorhizobium metallidurans); assay: SEC; S200 column; each protein alone (1 mL) and a mixture of equal volumes (500 uL each) of the two proteins; peaks compared

| stoichiometry N [1] | stoichiometry N [2] | stoichiometry N [3] | Substance |
| --- | --- | --- | --- |
| 4 |  |  | Enoyl-CoA carboxylase/reductase (ECR) from Burkholderia ambifaria (enzyme) |
|  | 2 | 2 | Enoyl-CoA carboxylase/reductase (ECR) from Mesorhizobium metallidurans (enzyme) |
